Molecular target: c-Met (UniProt P08581)
Experiment: Biacore SPR

Sequence of c-Met (P08581 25-932): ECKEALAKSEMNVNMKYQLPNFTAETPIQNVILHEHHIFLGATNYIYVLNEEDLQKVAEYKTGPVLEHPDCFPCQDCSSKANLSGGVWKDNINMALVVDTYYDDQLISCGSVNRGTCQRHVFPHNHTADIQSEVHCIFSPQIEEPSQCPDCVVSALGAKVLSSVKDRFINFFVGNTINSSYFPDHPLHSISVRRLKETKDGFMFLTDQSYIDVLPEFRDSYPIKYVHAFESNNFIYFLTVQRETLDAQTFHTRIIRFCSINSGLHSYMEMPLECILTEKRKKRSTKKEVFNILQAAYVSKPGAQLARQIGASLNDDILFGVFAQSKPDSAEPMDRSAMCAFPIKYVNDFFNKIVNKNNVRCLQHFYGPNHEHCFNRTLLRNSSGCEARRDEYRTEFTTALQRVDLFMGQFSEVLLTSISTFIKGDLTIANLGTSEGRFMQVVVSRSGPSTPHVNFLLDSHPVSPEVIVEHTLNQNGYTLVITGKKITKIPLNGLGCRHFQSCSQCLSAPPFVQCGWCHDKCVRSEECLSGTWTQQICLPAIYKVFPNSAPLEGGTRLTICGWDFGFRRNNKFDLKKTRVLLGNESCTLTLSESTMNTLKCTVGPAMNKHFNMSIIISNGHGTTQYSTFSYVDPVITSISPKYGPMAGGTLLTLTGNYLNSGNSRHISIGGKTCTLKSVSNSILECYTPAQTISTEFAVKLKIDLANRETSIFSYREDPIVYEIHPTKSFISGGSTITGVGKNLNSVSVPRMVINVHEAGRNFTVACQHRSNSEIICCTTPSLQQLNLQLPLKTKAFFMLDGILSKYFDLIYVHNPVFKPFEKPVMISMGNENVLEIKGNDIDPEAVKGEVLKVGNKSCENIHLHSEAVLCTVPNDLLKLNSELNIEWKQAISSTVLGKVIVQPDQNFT

Ka: 5.89e+09 M⁻¹
Kd: 0.17 nM
Substance: 5D5

— US20190359719A1
